In this experiment the target is Pex5L, a longer isoform of Pex5 (Chinese hamster, ClPex5L) (Chinese hamster, UniProt Q920N5 1-640). The experiment in a line: pull-down; GST-Pex14 variants (2 μg) on glutathione-Sepharose beads incubated with EGFP-PTS1 (4 μg) or HA-catalase (4 μg) in the presence of Pex5L (2 μg) 2 h at 4°C; 50 mM Tris-HCl pH 7.5, 0.15 M NaCl, 1% Triton X-100, 10% glycerol; immunoblot. Particulars: both partners purified.

B1: HA-catalase (human, HA-HsCatalase) (enzyme)
chain: MADSRDPASDQMQHWKEQRAAQKADVLTTGAGNPVGDKLNVITVGPRGPLLVQDVVFTDEMAHFDRERIPERVVHAKGAGAFGYFEVTHDITKYSKAKVFEHIGKKTPIAVRFSTVAGESGSADTVRDPRGFAVKFYTEDGNWDLVGNNTPIFFIRDPILFPSFIHSQKRNPQTHLKDPDMVWDFWSLRPESLHQVSFLFSDRGIPDGHRHMNGYGSHTFKLVNANGEAVYCKFHYKTDQGIKNLSVEDAARLSQEDPDYGIRDLFNAIATGKYPSWTFYIQVMTFNQAETFPFNPFDLTKVWPHKDYPLIPVGKLVLNRNPVNYFAEVEQIAFDPSNMPPGIEASPDKMLQGRLFAYPDTHRHRLGPNYLHIPVNCPYRARVANYQRDGPMCMQDNQGGAPNYYPNSFGAPEQQPSALEHSIQYSGEVRRFNTANDDNVTQVRAFYVNVLNEEQRKRLCENIAGHLKDAQIFIQKKAVKNFTEVHPDYGSHIQALLDKYNAEKPKNAIHTFVQSGSHLAAREKANL
notes: catalase, human (HsCatalase), amplified from pUcD3/HA-HsCatalase (Otera and Fujiki, 2012) and cloned into pGEX6P-1; source: E. coli DH5α, purified as GST fusion with glutathione-Sepharose beads, isolated by cleaving with PreScission protease
Take B1: the binding result is on record as “binds”.
